In article PMC6197226 (2018):

Tests used:
[1] = target: p62 ZZ domain (aa 120-171) (human, UniProt Q13501 120-171)
[2] = target: p62 ZZ domain (aa 115-190) (human, UniProt Q13501 115-190); assay: MST

| Kd [1] [µM] | Kd [2] [µM] | Binder |
| --- | --- | --- |
| 5.6 | 1.9 | REEE [REEE peptide] |
| 14 | 3.2 | RAEE [RAEE peptide] |
